Measured values reported in patent publication US20130071374.

Test system: (His)6PemI

Q: With PemK(His)6 as the substance, how does the “cleavage of mazG mRNA (native PAGE of digestion products)” value read?
A: Its value is “the addition of PemI inhibited the cleavage of mazG mRNA in a dose-dependent manner”.
